Source: patent US20200199241A1 (Chugai, published 2020)
Changes are numbered by the printed parent chain.

B1: IgG1-F689 (antibody)
heavy: QVQLQESGPGLVKPSETLSLTCAVSGHSISHDHAWSWVRQPPGEGLEWIGFISYSGITNYNPSLQGRVTISRDNSKNTLYLQMNSLRAEDTAVYYCARSLARTTAMDYWGEGTLVTVSSASTKGPSVFPLAPSSKSTSGGTAALGCLVKDYFPEPVTVSWNSGALTSGVHTFPAVLQSSGLYSLSSVVTVPSSSLGTQTYICNVNHKPSNTKVDKKVEPKSCDKTHTCPPCPAPELLGGPSVFLFPPKPKDTLYISRTPEVTCVVVDVSHEDPEVKFNWYVDGVEVHNAMTKPREEQYNSTYRVVSVLTPLHQDWLNGKEYKCKVSNKALPAPIEKTISKAKGQPREPQVYTLPPSRDELTKNQVSLTCLVKGFYPSDIAVEWESNGQPENNYKTTPPVLDSDGSFFLYSKLTVDKSRWQQGNVFSCSVMHEALHYHYTQKSLSLSP
light: not shown
notes: EU numbering; copies: 2 + 2
B2: IgG1-F691 (antibody)
heavy: B1 heavy with M290P
light: not shown
notes: EU numbering; copies: 2 + 2
B3: IgG1-F694 (antibody)
heavy: B1 heavy with M290V
light: not shown
notes: EU numbering; copies: 2 + 2
B4: IgG1-F717 (antibody)
heavy: B1 heavy with P240D, M290K, P310V, N327I
light: not shown
notes: EU numbering; copies: 2 + 2
B5: IgG1-F745 (antibody)
heavy: B1 heavy with P240D, T252G, M290K, P310V
light: not shown
notes: EU numbering; copies: 2 + 2
B6: IgG1-F697 (antibody)
heavy: B1 heavy with S241K, M290K, N327G
light: not shown
notes: EU numbering; copies: 2 + 2
B7: IgG1-F695 (antibody)
heavy: B1 heavy with M290W
light: not shown
notes: EU numbering; copies: 2 + 2
B8: IgG1-F732 (antibody)
heavy: B1 heavy with Y254M, M290K, T309Q, P310V, Q313H
light: not shown
notes: EU numbering; copies: 2 + 2
B9: IgG1-F698 (antibody)
heavy: B1 heavy with N288E, M290K, T309Q, P310V, Q313A
light: not shown
notes: EU numbering; copies: 2 + 2
B10: IgG1-F720 (antibody)
heavy: B1 heavy with M290K, T309Q, Q313A
light: not shown
notes: EU numbering; copies: 2 + 2
B11: IgG1-F707 (antibody)
heavy: B1 heavy with N288E, M290K, T309Q, Q313A
light: not shown
notes: EU numbering; copies: 2 + 2
B12: IgG1-F700 (antibody)
heavy: B1 heavy with M290K, L330E
light: not shown
notes: EU numbering; copies: 2 + 2
B13: IgG1-F719 (antibody)
heavy: B1 heavy with P240D, M290K, P310V, N327G
light: not shown
notes: EU numbering; copies: 2 + 2
B14: IgG1-F710 (antibody)
heavy: B1 heavy with P240D, N288E, M290K, T309Q, P310V, Q313A, M430I
light: not shown
notes: EU numbering; copies: 2 + 2
B15: IgG1-F739 (antibody)
heavy: B1 heavy with M290K, T309P, P310V, Q313A
light: not shown
notes: EU numbering; copies: 2 + 2
B16: IgG1-F737 (antibody)
heavy: B1 heavy with S269L, M290K, P310V, L330E
light: not shown
notes: EU numbering; copies: 2 + 2
B17: IgG1-F734 (antibody)
heavy: B1 heavy with G238D, M290K, P310V, L330E
light: not shown
notes: EU numbering; copies: 2 + 2
B18: IgG1-F692 (antibody)
heavy: B1 heavy with M290Q
light: not shown
notes: EU numbering; copies: 2 + 2
B19: IgG1-F738 (antibody)
heavy: B1 heavy with P240D, M290K, T309P, P310V
light: not shown
notes: EU numbering; copies: 2 + 2
B20: IgG1-F723 (antibody)
heavy: B1 heavy with P240D, M290K, P310V, L330D
light: not shown
notes: EU numbering; copies: 2 + 2
B21: IgG1-F740 (antibody)
heavy: B1 heavy with M290K, T309P, P310V, Q313H
light: not shown
notes: EU numbering; copies: 2 + 2
B22: IgG1-F714 (antibody)
heavy: B1 heavy with P240D, M290K, P310V, N327S
light: not shown
notes: EU numbering; copies: 2 + 2
B23: IgG1-F733 (antibody)
heavy: B1 heavy with M290K, P310V, L330E
light: not shown
notes: EU numbering; copies: 2 + 2
B24: IgG1-F693 (antibody)
heavy: B1 heavy with M290R
light: not shown
notes: EU numbering; copies: 2 + 2
B25: IgG1-F725 (antibody)
heavy: B1 heavy with L237K, G239R, S241K, M290K
light: not shown
notes: EU numbering; copies: 2 + 2
B26: IgG1-F706 (antibody)
heavy: B1 heavy with N288E, M290K, T309Q, P310V, Q313A, M430I
light: not shown
notes: EU numbering; copies: 2 + 2
B27: IgG1-F690 (antibody)
heavy: B1 heavy with M290N
light: not shown
notes: EU numbering; copies: 2 + 2
B28: IgG1-F730 (antibody)
heavy: B1 heavy with Y254M, M290K, T309Q, P310V, Q313A
light: not shown
notes: EU numbering; copies: 2 + 2
B29: IgG1-F729 (antibody)
heavy: B1 heavy with Y254M, M290K, T309A, P310V, Q313A
light: not shown
notes: EU numbering; copies: 2 + 2
B30: IgG1-F715 (antibody)
heavy: B1 heavy with P240D, M290K, P310V, N327M
light: not shown
notes: EU numbering; copies: 2 + 2
B31: IgG1-F696 (antibody)
heavy: B1 heavy with M290Y
light: not shown
notes: EU numbering; copies: 2 + 2
B32: IgG1-F741 (antibody)
heavy: B1 heavy with P240D, T252A, M290K, P310V
light: not shown
notes: EU numbering; copies: 2 + 2
B33: IgG1-F736 (antibody)
heavy: B1 heavy with S269M, M290K, P310V, L330E
light: not shown
notes: EU numbering; copies: 2 + 2
B34: IgG1-F726 (antibody)
heavy: B1 heavy with L237K, P240K, S241K, M290K
light: not shown
notes: EU numbering; copies: 2 + 2
B35: IgG1-F731 (antibody)
heavy: B1 heavy with Y254M, M290K, T309A, P310V, Q313H
light: not shown
notes: EU numbering; copies: 2 + 2
B36: IgG1-F713 (antibody)
heavy: B1 heavy with P240D, N288E, M290K, T309Q, P310V, Q313A
light: not shown
notes: EU numbering; copies: 2 + 2
B37: IgG1-F709 (antibody)
heavy: B1 heavy with S241K, N288E, M290K, T309Q, P310V, Q313A, M430I
light: not shown
notes: EU numbering; copies: 2 + 2
B38: IgG1-F744 (antibody)
heavy: B1 heavy with P240D, T252F, M290K, P310V
light: not shown
notes: EU numbering; copies: 2 + 2
B39: IgG1-F705 (antibody)
heavy: B1 heavy with N288E, M290K, M430I
light: not shown
notes: EU numbering; copies: 2 + 2
B40: IgG1-F724 (antibody)
heavy: B1 heavy with P240D, M290K, P310V, L330E
light: not shown
notes: EU numbering; copies: 2 + 2
B41: IgG1-F721 (antibody)
heavy: B1 heavy with M290K, T309Q, Q313A, M430I
light: not shown
notes: EU numbering; copies: 2 + 2
B42: IgG1-F711 (antibody)
heavy: B1 heavy with S241K, M290K, T309Q, P310V, Q313A
light: not shown
notes: EU numbering; copies: 2 + 2
B43: IgG1-F699 (antibody)
heavy: B1 heavy with S241K, N288E, M290K, T309Q, P310V, Q313A
light: not shown
notes: EU numbering; copies: 2 + 2
B44: IgG1-F708 (antibody)
heavy: B1 heavy with N288E, M290K, T309Q, Q313A, M430I
light: not shown
notes: EU numbering; copies: 2 + 2
B45: IgG1-F716 (antibody)
heavy: B1 heavy with P240D, M290K, P310V, N327L
light: not shown
notes: EU numbering; copies: 2 + 2
B46: IgG1-F718 (antibody)
heavy: B1 heavy with P240D, M290K, Q297M, P310V
light: not shown
notes: EU numbering; copies: 2 + 2
B47: IgG1-F712 (antibody)
heavy: B1 heavy with P240D, M290K, T309Q, P310V, Q313A
light: not shown
notes: EU numbering; copies: 2 + 2
B48: IgG1-F890 (antibody)
heavy: B1 heavy with M290K, P310V, Y438V
light: not shown
notes: copies: 2 + 2
B49: IgG1-F751 (antibody)
heavy: B1 heavy with P240D, T252N, M290K, P310V
light: not shown
notes: EU numbering; copies: 2 + 2
B50: IgG1-F747 (antibody)
heavy: B1 heavy with P240D, T252I, M290K, P310V
light: not shown
notes: EU numbering; copies: 2 + 2
B51: IgG1-F750 (antibody)
heavy: B1 heavy with P240D, T252M, M290K, P310V
light: not shown
notes: EU numbering; copies: 2 + 2
B52: IgG1-F753 (antibody)
heavy: B1 heavy with P240D, T252Q, M290K, P310V
light: not shown
notes: EU numbering; copies: 2 + 2
B53: IgG1-F746 (antibody)
heavy: B1 heavy with P240D, T252H, M290K, P310V
light: not shown
notes: EU numbering; copies: 2 + 2
B54: IgG1-F762 (antibody)
heavy: B1 heavy with L237K, S241K, N288E, M290K, T309Q, P310V, Q313A
light: not shown
notes: EU numbering; copies: 2 + 2
B55: IgG1-F756 (antibody)
heavy: B1 heavy with P240D, T252V, M290K, P310V
light: not shown
notes: EU numbering; copies: 2 + 2
B56: IgG1-F749 (antibody)
heavy: B1 heavy with P240D, T252L, M290K, P310V
light: not shown
notes: EU numbering; copies: 2 + 2
B57: IgG1-F757 (antibody)
heavy: B1 heavy with P240D, T252W, M290K, P310V
light: not shown
notes: EU numbering; copies: 2 + 2
B58: IgG1-F763 (antibody)
heavy: B1 heavy with L237R, S241K, N288E, M290K, T309Q, P310V, Q313A
light: not shown
notes: EU numbering; copies: 2 + 2
B59: IgG1-F758 (antibody)
heavy: B1 heavy with P240D, T252Y, M290K, P310V
light: not shown
notes: EU numbering; copies: 2 + 2

biological target: T1, human FcRn (soluble human FcRn complexed with β2-microglobulin) (human, UniProt P61769 21-119, limits assumed); assay: SPR, pH 7.0;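 further: antibodies captured on a Protein L sensor chip with human FcRn injected as analyte, KD calculated from fitted association and dissociation rate constants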
T1 construct: also called hFcRn

Row | Kd | Binder
1 | 41 nM | B1
2 | 320 nM | B2
3 | 47 nM | B3
4 | 260 nM | B4
5 | 660 nM | B5
6 | 31 nM | B6
7 | 40 nM | B7
8 | 680 nM | B8
9 | 22 nM | B9
10 | 24 nM | B10
11 | 5.9 nM | B11
12 | 52 nM | B12
13 | 74 nM | B13
14 | 15 nM | B14
15 | 220 nM | B15
16 | 310 nM | B16
17 | 310 nM | B17
18 | 39 nM | B18
19 | 350 nM | B19
20 | 280 nM | B20
21 | 290 nM | B21
22 | 230 nM | B22
23 | 320 nM | B23
24 | 36 nM | B24

Row | Kd | Binder
25 | 42 nM | B25
26 | 18 nM | B26
27 | 100 nM | B27
28 | 600 nM | B28
29 | 920 nM | B29
30 | 230 nM | B30
31 | 44 nM | B31
32 | 310 nM | B32
33 | 310 nM | B33
34 | 37 nM | B34
35 | 850 nM | B35
36 | 20 nM | B36
37 | 20 nM | B37
38 | 990 nM | B38
39 | 7.1 nM | B39
40 | 250 nM | B40
41 | 15 nM | B41
42 | 65 nM | B42
43 | 23 nM | B43
44 | 4.1 nM | B44
45 | 270 nM | B45
46 | 280 nM | B46
47 | 60 nM | B47

biological target: T2, soluble human FcRn complexed with β2-microglobulin (human, UniProt P61769 21-119, limits assumed); assay: Biacore SPR, pH 7.0;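 further: test antibodies captured on a Protein L chip with human FcRn flowed over as analyte, KD obtained as the ratio of dissociation to association rate constants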
T2 construct: also called hFcRn

Row | Kd | Binder
48 | 110 nM | B48
49 | 530 nM | B49
50 | 280 nM | B50
51 | 300 nM | B51
52 | 180 nM | B52
53 | 600 nM | B53
54 | 36 nM | B54
55 | 370 nM | B55
56 | 510 nM | B56
57 | 1200 nM | B57
58 | 35 nM | B58
59 | 1400 nM | B59
